Sequences and labels used below:
B1: Tip20p, full-length (residues 1-701) (natural protein, S. cerevisiae, UniProt P33891 1-701, looked up)
chain: MNGIDDLLNINDRIKQVQNERNELASKLQNLKQSLASNDTEVALSEVIAQDIIEVGASVEGLEQLRAKYGDLQILNKLEKVAVQQTQMQAGVDKLDSFERQLDELAEQPPDQFTLDDVKALHSKLTSVFATVPQINNIDSQYAAYNKLKSKVTGKYNDVIIQRLATNWSNTFDQKLLEAQWDTQKFASTSVGLVKCLRENSTKLYQLSLLYLPLEEETQNGDSERPLSRSNNNQEPVLWNFKSLANNFNVRFTYHFHATSSSSKIETYFQFLNDYLAENLYKCINIFHDDCNGLTKPVIHEQFINYVLQPIRDKVRSTLFQNDLKTLIVLISQILATDKNLLNSFHYHGLGLVSLISDEVWEKWINYEVEMANRQFINITKNPEDFPKSSQNFVKLINKIYDYLEPFYDLDFDLLVRYKLMTCSLIFMNLTSSYLDYILTVDSLNETRTKEQELYQTMAKLQHVNFVYRKIKSLSSNFIFIQLTDIVNSTESKKYNSLFQNVENDYEKAMSTDMQNSIVHRIQKLLKETLRNYFKISTWSTLEMSVDENIGPSSVPSAELVNSINVLRRLINKLDSMDIPLAISLKVKNELLNVIVNYFTESILKLNKFNQNGLNQFLHDFKSLSSILSLPSHATNYKCMSLHELVKILKLKYDPNNQQFLNPEYIKTGNFTSLKEAYSIKYLKDTKIQDALYRIIYGNIL

Experiment [1] has as its target T1, Dsl1p, full-length (residues 1-754) (S. cerevisiae, UniProt P53847 1-754).
T1 sequence (looked up): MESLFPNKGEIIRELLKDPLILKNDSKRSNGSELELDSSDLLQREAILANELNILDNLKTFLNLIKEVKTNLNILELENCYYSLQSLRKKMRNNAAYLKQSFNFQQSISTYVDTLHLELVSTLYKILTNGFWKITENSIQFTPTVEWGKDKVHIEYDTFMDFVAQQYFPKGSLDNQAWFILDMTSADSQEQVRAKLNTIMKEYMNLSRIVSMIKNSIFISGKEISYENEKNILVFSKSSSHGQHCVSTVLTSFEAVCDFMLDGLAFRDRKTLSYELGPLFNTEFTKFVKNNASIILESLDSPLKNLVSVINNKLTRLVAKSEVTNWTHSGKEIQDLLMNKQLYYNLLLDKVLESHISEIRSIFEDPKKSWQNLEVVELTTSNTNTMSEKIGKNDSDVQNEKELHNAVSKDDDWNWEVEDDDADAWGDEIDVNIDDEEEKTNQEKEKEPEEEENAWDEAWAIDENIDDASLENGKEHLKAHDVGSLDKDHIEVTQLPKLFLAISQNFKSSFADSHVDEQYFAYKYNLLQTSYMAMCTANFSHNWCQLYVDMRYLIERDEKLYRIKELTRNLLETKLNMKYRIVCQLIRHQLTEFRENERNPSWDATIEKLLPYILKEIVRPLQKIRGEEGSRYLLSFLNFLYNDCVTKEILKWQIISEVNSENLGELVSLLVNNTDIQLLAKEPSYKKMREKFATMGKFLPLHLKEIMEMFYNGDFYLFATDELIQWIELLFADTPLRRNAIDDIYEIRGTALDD
In words: SEC. (In general: In gel filtration, larger molecules generally elute earlier.)

Another experiment addresses T2, Dsl1p-Sec39p complex (S. cerevisiae, UniProt P53847 1-754; Q12745 1-709).
T2 sequence (looked up) 1: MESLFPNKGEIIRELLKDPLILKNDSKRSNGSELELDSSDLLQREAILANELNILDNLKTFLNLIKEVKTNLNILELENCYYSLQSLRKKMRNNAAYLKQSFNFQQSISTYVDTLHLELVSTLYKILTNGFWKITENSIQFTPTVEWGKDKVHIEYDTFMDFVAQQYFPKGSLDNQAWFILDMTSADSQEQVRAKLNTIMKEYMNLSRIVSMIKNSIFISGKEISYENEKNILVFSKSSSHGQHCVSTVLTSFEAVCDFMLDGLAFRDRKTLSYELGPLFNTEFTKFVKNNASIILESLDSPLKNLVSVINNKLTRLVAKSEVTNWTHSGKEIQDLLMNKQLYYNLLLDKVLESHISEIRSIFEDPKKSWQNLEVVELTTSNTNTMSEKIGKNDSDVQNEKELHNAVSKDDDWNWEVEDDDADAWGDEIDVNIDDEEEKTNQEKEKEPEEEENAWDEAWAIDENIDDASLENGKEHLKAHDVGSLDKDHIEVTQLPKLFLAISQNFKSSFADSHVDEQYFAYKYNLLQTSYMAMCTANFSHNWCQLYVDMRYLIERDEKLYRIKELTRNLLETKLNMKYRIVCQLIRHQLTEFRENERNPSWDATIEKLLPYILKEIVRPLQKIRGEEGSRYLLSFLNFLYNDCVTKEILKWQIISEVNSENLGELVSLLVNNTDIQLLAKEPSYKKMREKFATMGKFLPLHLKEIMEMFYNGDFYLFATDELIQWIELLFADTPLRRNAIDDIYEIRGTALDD
T2 sequence (looked up) 2: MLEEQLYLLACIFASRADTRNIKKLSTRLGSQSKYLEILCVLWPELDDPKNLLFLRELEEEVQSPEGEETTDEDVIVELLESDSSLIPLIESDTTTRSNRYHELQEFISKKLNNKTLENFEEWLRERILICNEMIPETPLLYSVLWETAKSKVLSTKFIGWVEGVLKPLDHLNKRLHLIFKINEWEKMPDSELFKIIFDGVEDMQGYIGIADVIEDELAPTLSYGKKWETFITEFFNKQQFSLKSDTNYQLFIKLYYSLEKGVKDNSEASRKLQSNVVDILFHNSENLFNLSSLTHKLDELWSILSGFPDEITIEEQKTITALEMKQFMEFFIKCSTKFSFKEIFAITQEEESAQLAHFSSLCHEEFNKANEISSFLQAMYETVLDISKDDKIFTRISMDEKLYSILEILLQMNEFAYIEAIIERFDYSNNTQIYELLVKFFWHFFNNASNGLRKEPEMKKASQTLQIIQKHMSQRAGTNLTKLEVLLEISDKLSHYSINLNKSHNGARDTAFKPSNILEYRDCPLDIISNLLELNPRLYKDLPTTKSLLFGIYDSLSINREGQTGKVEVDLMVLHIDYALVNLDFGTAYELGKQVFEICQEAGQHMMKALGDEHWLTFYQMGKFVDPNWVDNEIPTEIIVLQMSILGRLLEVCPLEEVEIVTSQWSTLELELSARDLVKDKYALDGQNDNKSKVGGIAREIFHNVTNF
In words: SEC.

The target of experiment [2] is T3, Sec39p, full-length (residues 1-709) (S. cerevisiae, UniProt Q12745 1-709).
T3 sequence (looked up): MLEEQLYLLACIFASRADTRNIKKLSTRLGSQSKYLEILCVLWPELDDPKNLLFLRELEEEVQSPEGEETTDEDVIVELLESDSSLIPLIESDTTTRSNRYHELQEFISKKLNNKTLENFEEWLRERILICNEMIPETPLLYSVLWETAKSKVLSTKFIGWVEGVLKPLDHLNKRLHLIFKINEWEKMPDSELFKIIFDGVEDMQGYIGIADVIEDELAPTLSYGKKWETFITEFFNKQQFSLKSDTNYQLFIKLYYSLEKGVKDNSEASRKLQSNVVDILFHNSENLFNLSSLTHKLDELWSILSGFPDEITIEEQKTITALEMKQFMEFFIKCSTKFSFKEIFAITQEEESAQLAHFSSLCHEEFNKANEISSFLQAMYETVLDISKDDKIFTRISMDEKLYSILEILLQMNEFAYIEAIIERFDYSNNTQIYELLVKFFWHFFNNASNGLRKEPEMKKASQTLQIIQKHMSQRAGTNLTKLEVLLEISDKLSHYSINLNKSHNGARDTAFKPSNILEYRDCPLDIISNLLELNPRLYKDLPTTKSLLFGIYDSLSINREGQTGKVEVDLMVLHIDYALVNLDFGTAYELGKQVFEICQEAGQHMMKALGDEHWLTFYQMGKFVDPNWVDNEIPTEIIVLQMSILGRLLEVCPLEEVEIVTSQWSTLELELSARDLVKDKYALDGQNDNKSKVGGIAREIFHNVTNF
In words: SEC.

The target of experiment [3] is B1. The experiment is described as follows: SEC.
Experiment [4] addresses T4, Dsl1p residues 37-339, as the C-terminal part of the Tip20p-Dsl1p fusion protein (S. cerevisiae, UniProt P53847 37-339).
T4 sequence (looked up): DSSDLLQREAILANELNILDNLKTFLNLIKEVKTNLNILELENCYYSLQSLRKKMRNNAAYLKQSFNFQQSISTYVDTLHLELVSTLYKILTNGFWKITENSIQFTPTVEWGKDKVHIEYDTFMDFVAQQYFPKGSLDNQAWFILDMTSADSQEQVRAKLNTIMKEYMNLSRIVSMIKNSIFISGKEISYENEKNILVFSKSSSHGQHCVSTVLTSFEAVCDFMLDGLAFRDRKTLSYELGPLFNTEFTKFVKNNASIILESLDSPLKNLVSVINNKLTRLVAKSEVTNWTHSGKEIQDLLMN
The experiment is described as follows: crystal structure.

Turning to B1, the binding result (in experiment [1]; in the experiment with Dsl1p-Sec39p complex) was “binds” throughout.

B2: Dsl1ΔN1 (Dsl1p residues 340-754) (domain or fragment, S. cerevisiae, UniProt P53847 340-754, looked up)
chain: KQLYYNLLLDKVLESHISEIRSIFEDPKKSWQNLEVVELTTSNTNTMSEKIGKNDSDVQNEKELHNAVSKDDDWNWEVEDDDADAWGDEIDVNIDDEEEKTNQEKEKEPEEEENAWDEAWAIDENIDDASLENGKEHLKAHDVGSLDKDHIEVTQLPKLFLAISQNFKSSFADSHVDEQYFAYKYNLLQTSYMAMCTANFSHNWCQLYVDMRYLIERDEKLYRIKELTRNLLETKLNMKYRIVCQLIRHQLTEFRENERNPSWDATIEKLLPYILKEIVRPLQKIRGEEGSRYLLSFLNFLYNDCVTKEILKWQIISEVNSENLGELVSLLVNNTDIQLLAKEPSYKKMREKFATMGKFLPLHLKEIMEMFYNGDFYLFATDELIQWIELLFADTPLRRNAIDDIYEIRGTALDD
Turning to B2, the binding result in experiment [2] is “binds”.

B3: Dsl1ΔN (Dsl1p residues 57-754) (domain or fragment, S. cerevisiae, UniProt P53847 57-754, looked up)
chain: NLKTFLNLIKEVKTNLNILELENCYYSLQSLRKKMRNNAAYLKQSFNFQQSISTYVDTLHLELVSTLYKILTNGFWKITENSIQFTPTVEWGKDKVHIEYDTFMDFVAQQYFPKGSLDNQAWFILDMTSADSQEQVRAKLNTIMKEYMNLSRIVSMIKNSIFISGKEISYENEKNILVFSKSSSHGQHCVSTVLTSFEAVCDFMLDGLAFRDRKTLSYELGPLFNTEFTKFVKNNASIILESLDSPLKNLVSVINNKLTRLVAKSEVTNWTHSGKEIQDLLMNKQLYYNLLLDKVLESHISEIRSIFEDPKKSWQNLEVVELTTSNTNTMSEKIGKNDSDVQNEKELHNAVSKDDDWNWEVEDDDADAWGDEIDVNIDDEEEKTNQEKEKEPEEEENAWDEAWAIDENIDDASLENGKEHLKAHDVGSLDKDHIEVTQLPKLFLAISQNFKSSFADSHVDEQYFAYKYNLLQTSYMAMCTANFSHNWCQLYVDMRYLIERDEKLYRIKELTRNLLETKLNMKYRIVCQLIRHQLTEFRENERNPSWDATIEKLLPYILKEIVRPLQKIRGEEGSRYLLSFLNFLYNDCVTKEILKWQIISEVNSENLGELVSLLVNNTDIQLLAKEPSYKKMREKFATMGKFLPLHLKEIMEMFYNGDFYLFATDELIQWIELLFADTPLRRNAIDDIYEIRGTALDD
B3: the binding result in experiment [2] is given as “binds”.

B4: Dsl1ΔC (L41E) (domain or fragment, S. cerevisiae, UniProt P53847 1-361, looked up)
chain: MESLFPNKGEIIRELLKDPLILKNDSKRSNGSELELDSSDELQREAILANELNILDNLKTFLNLIKEVKTNLNILELENCYYSLQSLRKKMRNNAAYLKQSFNFQQSISTYVDTLHLELVSTLYKILTNGFWKITENSIQFTPTVEWGKDKVHIEYDTFMDFVAQQYFPKGSLDNQAWFILDMTSADSQEQVRAKLNTIMKEYMNLSRIVSMIKNSIFISGKEISYENEKNILVFSKSSSHGQHCVSTVLTSFEAVCDFMLDGLAFRDRKTLSYELGPLFNTEFTKFVKNNASIILESLDSPLKNLVSVINNKLTRLVAKSEVTNWTHSGKEIQDLLMNKQLYYNLLLDKVLESHISEIRS
Turning to B4, the binding result in experiment [3] is listed as “binds”.
Regarding MNGIDDLLNINDRIKQVQNERNELASKLQNLKQSLASNDT (domain or fragment, S. cerevisiae, UniProt P33891 1-40, looked up) [Tip20p residues 1-40, as the N-terminal part of the Tip20p-Dsl1p fusion protein], the binding result in experiment [4] is listed as “binds”.

The values above are taken from PMC2635920 (Nature structural & molecular biology, 2009).
